The target in the assay is human FasL, cell surface (membrane-bound) (human) (UniProt P48023). Description: cell-based or functional assay.
Chain of human FasL, cell surface (membrane-bound) (human) (P48023 whole entry): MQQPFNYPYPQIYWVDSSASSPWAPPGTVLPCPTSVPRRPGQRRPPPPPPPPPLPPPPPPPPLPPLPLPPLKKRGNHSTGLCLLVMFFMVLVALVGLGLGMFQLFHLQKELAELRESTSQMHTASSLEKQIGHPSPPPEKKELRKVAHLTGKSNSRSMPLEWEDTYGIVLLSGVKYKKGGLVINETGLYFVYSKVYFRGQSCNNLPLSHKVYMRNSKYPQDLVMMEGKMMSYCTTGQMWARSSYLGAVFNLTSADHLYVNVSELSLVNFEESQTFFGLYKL

“soluble CD95-Fc (sCD95-Fc) fusion protein (from UniProt P25445 26-172) (Fc fusion)” displayed an inhibition of FasL-mediated apoptosis of Jurkat cells (annexin-V externalization, flow cytometry), IC50 of 102 nM.

(Values after patent US20260167734A1.)
